According to patent US20220048993A1 (published 2022):
Numbering of substitutions follows the chain as printed.

Tests used:
[1] = molecular target: T1, soluble human FcRH5 protein fragment (UniProt Q96RD9 16-851); experiment: SPR; 25 °C
T1 chain: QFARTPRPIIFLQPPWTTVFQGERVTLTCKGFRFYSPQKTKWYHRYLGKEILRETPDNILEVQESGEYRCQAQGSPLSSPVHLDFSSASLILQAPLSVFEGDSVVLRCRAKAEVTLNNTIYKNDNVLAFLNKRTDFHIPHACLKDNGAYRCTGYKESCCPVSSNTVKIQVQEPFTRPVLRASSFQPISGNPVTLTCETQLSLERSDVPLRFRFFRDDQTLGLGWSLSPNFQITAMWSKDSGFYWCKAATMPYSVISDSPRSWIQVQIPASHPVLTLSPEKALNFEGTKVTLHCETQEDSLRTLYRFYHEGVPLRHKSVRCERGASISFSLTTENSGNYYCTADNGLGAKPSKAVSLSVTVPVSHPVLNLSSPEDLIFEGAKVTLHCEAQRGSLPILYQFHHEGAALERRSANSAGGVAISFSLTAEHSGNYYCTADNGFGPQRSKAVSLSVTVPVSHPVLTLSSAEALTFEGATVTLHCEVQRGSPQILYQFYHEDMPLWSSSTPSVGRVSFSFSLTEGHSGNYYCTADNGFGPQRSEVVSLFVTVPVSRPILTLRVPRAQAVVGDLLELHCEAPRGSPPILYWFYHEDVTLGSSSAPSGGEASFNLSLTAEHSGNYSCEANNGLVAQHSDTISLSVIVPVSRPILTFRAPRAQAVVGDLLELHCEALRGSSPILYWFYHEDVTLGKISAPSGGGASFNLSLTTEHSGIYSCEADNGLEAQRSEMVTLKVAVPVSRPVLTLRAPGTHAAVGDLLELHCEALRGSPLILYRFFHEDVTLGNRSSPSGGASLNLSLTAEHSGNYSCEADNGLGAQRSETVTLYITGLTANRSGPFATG

[2] = molecular target: T2, soluble cynomolgus FcRH5 protein fragment; experiment: SPR; 25 °C
T2 chain: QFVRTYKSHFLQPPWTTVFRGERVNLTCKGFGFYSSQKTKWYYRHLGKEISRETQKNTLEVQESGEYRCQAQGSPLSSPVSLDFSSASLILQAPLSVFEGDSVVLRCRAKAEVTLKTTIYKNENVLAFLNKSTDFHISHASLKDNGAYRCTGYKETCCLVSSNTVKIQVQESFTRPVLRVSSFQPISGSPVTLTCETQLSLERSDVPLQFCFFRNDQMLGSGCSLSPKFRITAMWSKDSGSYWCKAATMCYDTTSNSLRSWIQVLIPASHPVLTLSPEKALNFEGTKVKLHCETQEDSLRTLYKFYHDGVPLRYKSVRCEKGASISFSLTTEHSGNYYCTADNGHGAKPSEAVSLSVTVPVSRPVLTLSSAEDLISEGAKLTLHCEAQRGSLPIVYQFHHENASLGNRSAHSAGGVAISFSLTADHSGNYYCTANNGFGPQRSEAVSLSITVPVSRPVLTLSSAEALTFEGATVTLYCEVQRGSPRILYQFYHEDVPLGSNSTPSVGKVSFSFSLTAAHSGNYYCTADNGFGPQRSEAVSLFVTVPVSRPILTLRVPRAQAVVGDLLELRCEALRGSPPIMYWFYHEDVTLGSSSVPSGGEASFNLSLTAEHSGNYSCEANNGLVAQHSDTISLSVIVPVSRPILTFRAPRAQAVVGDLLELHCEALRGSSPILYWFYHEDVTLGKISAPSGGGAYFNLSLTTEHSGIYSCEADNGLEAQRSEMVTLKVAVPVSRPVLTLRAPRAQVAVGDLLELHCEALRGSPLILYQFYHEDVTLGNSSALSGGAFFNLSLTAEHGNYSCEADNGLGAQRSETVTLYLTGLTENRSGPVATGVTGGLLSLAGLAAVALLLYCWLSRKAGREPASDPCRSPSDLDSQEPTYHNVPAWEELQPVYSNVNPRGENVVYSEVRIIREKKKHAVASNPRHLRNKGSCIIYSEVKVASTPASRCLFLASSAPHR

[3] = molecular target: 7D8.RbIgG; experiment: SPR; 25 °C
[4] = molecular target: T3, human FcRH3 (BIACORE analyte) (human, UniProt Q96P31 18-573); experiment: SPR (1:1 binding); 25 °C
T3 chain: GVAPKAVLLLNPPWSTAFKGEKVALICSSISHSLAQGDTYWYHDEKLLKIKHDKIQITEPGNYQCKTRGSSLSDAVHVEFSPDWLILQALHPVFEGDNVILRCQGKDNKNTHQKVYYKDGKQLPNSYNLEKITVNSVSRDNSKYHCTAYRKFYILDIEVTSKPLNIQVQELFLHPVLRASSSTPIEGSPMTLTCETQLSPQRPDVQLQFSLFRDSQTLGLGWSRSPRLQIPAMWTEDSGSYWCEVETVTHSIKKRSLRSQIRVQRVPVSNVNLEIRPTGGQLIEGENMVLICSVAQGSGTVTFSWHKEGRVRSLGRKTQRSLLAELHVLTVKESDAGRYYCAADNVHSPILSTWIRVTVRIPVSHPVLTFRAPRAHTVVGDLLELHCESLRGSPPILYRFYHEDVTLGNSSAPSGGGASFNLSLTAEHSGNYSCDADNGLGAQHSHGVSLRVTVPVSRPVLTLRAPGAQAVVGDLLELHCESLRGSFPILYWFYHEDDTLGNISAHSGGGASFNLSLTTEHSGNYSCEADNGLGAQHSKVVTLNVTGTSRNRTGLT

[5] = molecular target: T1, soluble human FcRH5 protein fragment; experiment: SPR

B1: h7D8.L1H2 (antibody)
chain 1: EVQLVESGGGLVQPGGSLRLSCAVSGIDLSSYAMGWVRQAPGKGLEWIGTIGTGGTPYYASWAKGRFTISKDSSKNTVYLQMNSLRAEDTAVYFCARDMYTGSIYYDMWGQGTLVTVSS
chain 2: DAQLTQSPSSLSASVGDRVTITCQSSQSVFNNAQLSWYQQKPGKPPKLLIYDTSNLASGVPSRFSGSGSGTDFTLTISSLQPEDFATYYCLGAYTDDADNAFGQGTKVEIK
**Q.** Which Kd [1] does the source give for B1 here?
**A.** 1.26 nM

**Q.** And the Kd [2]?
**A.** 4.97 nM

B2: Human FcRH5 (receptor)
chain: T1 chain
**Q.** How did the Kd [3] turn out when B2 was run?
**A.** 0.403 nM

B3: Cyno FcRH5 (receptor)
chain: T2 chain
**Q.** With B3 as the binder, how does the Kd [3] read?
**A.** 1.89 nM

B4: 1G7.v1.4/38E4.v1 TDB (bispecific antibody, V domains shown)
VH 1: EVQLVESGPGLVKPSETLSLTCTVSGFSLTRFGVHWVRQPPGKGLEWLGVIWRGGSTDYNAAFMSRLTISKDNSKNQVSLKLSSVTAADTAVYYCSNHYYGSSDYALDNWGQGTLVTVSS
VL 1: DIQMTQSPSSLSASVGDRVTITCKASQDVRNLVVWFQQKPGKAPKLLIYSGSYRYSGVPSRFSGSGSGTDFTLTISSLQPEDFATYYCQQHYSPPYTFGQGTKVEIK
VH 2: EVQLVQSGAEVKKPGASVKVSCKASGFTFTSYYIHWVRQAPGQGLEWIGWIYPENDNTKYNEKFKDRVTITADTSTSTAYLELSSLRSEDTAVYYCARDGYSRYYFDYWGQGTLVTVSS
VL 2: DIVMTQSPDSLAVSLGERATINCKSSQSLLNSRTRKNYLAWYQQKPGQSPKLLIYWTSTRKSGVPDRFSGSGSGTDFTLTISSLQAEDVAVYYCKQSFILRTFGQGTKVEIK
**Q.** B4 was tested. Which Kd [4] did it give?
**A.** 76.5 nM

B5: hu1G7.v93/38E4.v1 TDB (bispecific antibody, V domains shown)
VH 1: B4 VH 1 with L29T, M64V, S103P
VL 1: B4 VL 1 with R30S
VH 2: B4 VH 2
VL 2: B4 VL 2
**Q.** For B5, which Kd [5] is on record?
**A.** 1.07 nM
